Measured values published in paper PMC10331576 (2023).

Molecular target: COVID-2019-Spike-328-585 (RBD) (SARS-CoV-2, UniProt P0DTC2 328-585)
Experiment: BLI

B1: DC-SIGN.Fc (Fc fusion)
chain: QVSKVPSSISQEQSRQDAIYQNLTQLKAAVGELSEKSKLQEIYQELTQLKAAVGELPEKSKLQEIYQELTRLKAAVGELPEKSKLQEIYQELTWLKAAVGELPEKSKMQEIYQELTRLKAAVGELPEKSKQQEIYQELTRLKAAVGELPEKSKQQEIYQELTRLKAAVGELPEKSKQQEIYQELTQLKAAVERLCHPCPWEWTFFQGNCYFMSNSQRNWHDSITACKEVGAQLVVIKSAEEQNFLQLQSSRSNRFTWMGLSDLNQEGTWQWVDGSPLLPSFKQYWNRGEPNNVGEEDCAEFSGNGWNDDKCNLAKFWICKKSAASCSRDEEQFLSPAPATPNPPPA
Q: Which koff does the source give for B1 here?
A: 0.000614 s⁻¹
